According to patent US20250352661A1 (MYTHIC THERAPEUTICS, published 2025):
Residue numbers refer to the chain shown, from its start. Names may count otherwise.

T1: Human LRRC15 Protein, His Tag (Acro Biosystems) (human, UniProt Q8TF66 22-538, limits assumed)
T1 construct: Bought protein with His tag
T1 sequence (looked up): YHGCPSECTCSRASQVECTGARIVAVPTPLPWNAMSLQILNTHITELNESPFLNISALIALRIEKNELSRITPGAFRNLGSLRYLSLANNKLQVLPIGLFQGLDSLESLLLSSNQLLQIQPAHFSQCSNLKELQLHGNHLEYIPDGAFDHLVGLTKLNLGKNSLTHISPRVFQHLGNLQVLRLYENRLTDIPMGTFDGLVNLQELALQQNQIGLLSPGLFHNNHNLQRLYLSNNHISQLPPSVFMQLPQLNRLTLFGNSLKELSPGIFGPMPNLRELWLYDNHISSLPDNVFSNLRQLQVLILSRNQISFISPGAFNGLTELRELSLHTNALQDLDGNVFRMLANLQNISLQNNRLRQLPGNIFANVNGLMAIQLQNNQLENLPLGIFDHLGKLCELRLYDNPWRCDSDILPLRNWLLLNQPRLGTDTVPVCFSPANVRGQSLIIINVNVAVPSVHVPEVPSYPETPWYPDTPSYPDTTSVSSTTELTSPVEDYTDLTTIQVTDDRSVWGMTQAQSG

T2: Human LRRC15 Protein, His Tag (Acro Biosystems) (human, UniProt Q8TF66 22-538, limits assumed)
T2 construct: not shown: His tag
T2 sequence (looked up): T1 sequence (looked up)

B1: MYT8425 (antibody, V domains shown)
VH: EVQLVESGGGLVQPGGSLRLSCTASGLDFRRTNYICWVRQAPGKGLEWVGCIYIADVVHYYASWAKGRFTFSRDTSKNTVYLQMNSLRAEDTAVYYCARGADGGFVYGMDLWGQGTLVTVSS
VL: EIVMTQSPSTLSASVGDRVIITCQASQSIGNYLSWYQQKPGKAPKRLIYSASTLPSGVPSRFSGSGSGAEFTLTISSLQPDDFATYYCQNNHHLAGYGHPFGQGTKLTVL
notes: hu15G7 VL Y92H, W93H; human Fc
B2: MYT8430 (antibody, V domains shown)
VH: B1 VH
VL: B1 VL with G30H, Y32H, H92Y, H93W, G96H
notes: hu15G7 VL G30H, Y32H, G96H; human Fc
B3: MYT8437 (antibody, V domains shown)
VH: B1 VH
VL: B1 VL with G96H
notes: hu15G7 VL Y92H, W93H, G96H; human Fc
B4: MYT8429 (antibody, V domains shown)
VH: B1 VH
VL: B1 VL with G30H, Y32H, H92Y
notes: hu15G7 VL G30H, Y32H, W93H; human Fc
B5: MYT8435 (antibody, V domains shown)
VH: B1 VH
VL: B1 VL with Y32H, H93W, G96H
notes: hu15G7 VL Y32H, Y92H, G96H; human Fc
B6: MYT8436 (antibody, V domains shown)
VH: B1 VH
VL: B1 VL with Y32H, H92Y, G96H
notes: hu15G7 VL Y32H, W93H, G96H; human Fc
B7: MYT8427 (antibody, V domains shown)
VH: B1 VH
VL: B1 VL with H92Y, G96H
notes: hu15G7 VL W93H, G96H; human Fc
B8: MYT8426 (antibody, V domains shown)
VH: B1 VH
VL: B1 VL with H93W, G96H
notes: hu15G7 VL Y92H, G96H; human Fc
B9: MYT8434 (antibody, V domains shown)
VH: B1 VH
VL: B1 VL with Y32H
notes: hu15G7 VL Y32H, Y92H, W93H; human Fc
B10: MYT8431 (antibody, V domains shown)
VH: B1 VH
VL: B1 VL with G30H
notes: hu15G7 VL G30H, Y92H, W93H; human Fc
B11: MYT8433 (antibody, V domains shown)
VH: B1 VH
VL: B1 VL with G30H, H92Y, G96H
notes: hu15G7 VL G30H, W93H, G96H; human Fc
B12: MYT9465 (antibody, V domains shown)
VH: EVQLVESGGGLVQPGGSLRLSCTASGDSFSSSHWICWVRQAPGKGLEWVGCIYAGSIGSTYYASWAKGRFTISRDTSKNTVYLQMNSLRAEDTAVYYCARAPNDIYNYYFNLWGQGTLVTVSS
VL: EIVMTQSPSTLSASVGDRVIITCQASENIYNYLAWYQQKPGKAPKLLIYYASTLASGVPSRFSGSGSGAEFTLTISSLQPDDFATYYCQSGYVSKSSTFGQGTKLTVL
notes: also called hu29F1 VH F27D
B13: MYT9466 (antibody, V domains shown)
VH: B12 VH with D27F, S28D
VL: B12 VL
notes: also called hu29F1 VH S28D
B14: MYT9490 (antibody, V domains shown)
VH: B12 VH with D27F, A66D
VL: B12 VL
notes: also called hu29F1 VH A66D
B15: MYT9476 (antibody, V domains shown)
VH: B12 VH with D27F, I52D
VL: B12 VL
notes: also called hu29F1 VH I52D
B16: MYT9488 (antibody, V domains shown)
VH: B12 VH with D27F, S64D
VL: B12 VL
notes: also called hu29F1 VH S64D
B17: MYT9485 (antibody, V domains shown)
VH: B12 VH with D27F, Y61D
VL: B12 VL
notes: also called hu29F1 VH Y61D
B18: MYT9487 (antibody, V domains shown)
VH: B12 VH with D27F, A63D
VL: B12 VL
notes: also called hu29F1 VH A63D
B19: MYT9470 (antibody, V domains shown)
VH: B12 VH with D27F, S32D
VL: B12 VL
notes: also called hu29F1 VH S32D
B20: MYT9489 (antibody, V domains shown)
VH: B12 VH with D27F, W65D
VL: B12 VL
notes: also called hu29F1 VH W65D
B21: MYT9468 (antibody, V domains shown)
VH: B12 VH with D27F, S30D
VL: B12 VL
notes: also called hu29F1 VH S30D
B22: MYT9480 (antibody, V domains shown)
VH: B12 VH with D27F, S56D
VL: B12 VL
notes: Humanized 29F1 VH aspartate variant; also called hu29F1 VH S56D
B23: MYT9469 (antibody, V domains shown)
VH: B12 VH with D27F, S31D
VL: B12 VL
notes: Humanized 29F1 VH aspartate variant; also called hu29F1 VH S31D
B24: MYT9484 (antibody, V domains shown)
VH: B12 VH with D27F, T60D
VL: B12 VL
notes: also called hu29F1 VH T60D
B25: MYT9486 (antibody, V domains shown)
VH: B12 VH with D27F, Y62D
VL: B12 VL
notes: also called hu29F1 VH Y62D
B26: MYT9481 (antibody, V domains shown)
VH: B12 VH with D27F, I57D
VL: B12 VL
notes: also called hu29F1 VH I57D
B27: MYT9491 (antibody, V domains shown)
VH: B12 VH with D27F, K67D
VL: B12 VL
notes: also called hu29F1 VH K67D

target: T1, Human LRRC15 Protein, His Tag (Acro …); assay: BLI; dissociation pH 7.4 black, pH 5.4 grey [D00010 FIG. 1H]
Excerpt: For each individual plot, antigen binding proteins were captured on anti-human Fc biosensors and associated with LRRC15 at pH 7.4. Dissociation was at pH 7.4 (black) or pH 5.4 (grey). Major X-axis ticks=100 seconds, with left dashed vertical line=0 seconds. Major Y-axis ticks=0.5 nm and octet plots are shown MYT5712 and MYT6080-MYT6121.
Multiple LRRC15-binding monoclonal antibodies have been described in the literature and can be used as a template for engineering pH-dependent binding. We selected discovery RabMAb clone 15G7 (rabbit VH SEQ ID NO: 378, rabbit VL SEQ ID NO: 451; humanized VH SEQ ID NO: 382, humanized VL SEQ ID NO: 455) as a LRRC15-binding monoclonal antibody for pH-engineering via histidine scanning. […] To generate pH-dependent sequence variants, individual amino acid residues within the heavy chain CDRs were systematically substituted with a histidine (or alanine if H was already present in a given position; e.g., MYT6099), one at a time (rabbit, MYT6080-6121). Desirable mutations were transferred to a humanized framework (humanized, MYT 8387-8411). After allowing for four days of protein expression, cell culture supernatants were collected, quantified by SDS-PAGE analysis, and the pH dependence of the variant was evaluated using biolayer interferometry (BLI) on an Octet RED 96e instrument. Briefly, cell culture supernatants were diluted based on qualitative expression level of the variant determined by visual examination of SDS-PAGE gels, 5 μL of cell culture supernatant was diluted into 195 μL of 1×PBST, pH 7.4 for high expressors, 25 μL of cell culture supernatant was diluted into 175 μL of 1×PBST, pH 7.4 for medium expressors and 100 μL of cell culture supernatant was diluted into 100 μL of 1×PBST, pH 7.4 for low expressors for loading onto the sensor tips.

binding result | Binder
binds | B1
binds | B2
no binding (tested: 50 nM LRRC15) | B3
no binding (tested: 50 nM LRRC15) | B4
no binding (tested: 50 nM LRRC15) | B5
no binding (tested: 50 nM LRRC15) | B6
binds | B7
binds | B8
no binding (tested: 50 nM LRRC15) | B9
binds | B10
binds | B11

target: T2, Human LRRC15 Protein, His Tag (Acro …); assay: BLI; dissociation pH 7.4 black, pH 5.4 grey [1/2); D00019 FIG. 4B (1/2]
Protocol: Desirable mutations were transferred to a humanized framework (humanized, MYT 8387-8411). After allowing for four days of protein expression, cell culture supernatants were collected, quantified by SDS-PAGE analysis, and the pH dependence of the variant was evaluated using biolayer interferometry (BLI) on an Octet RED 96e instrument. Briefly, cell culture supernatants were diluted based on qualitative expression level of the variant determined by visual examination of SDS-PAGE gels, 5 μL of cell culture supernatant was diluted into 195 μL of 1×PBST, pH 7.4 for high expressors, 25 μL of cell culture supernatant was diluted into 175 μL of 1×PBST, pH 7.4 for medium expressors and 100 μL of cell culture supernatant was diluted into 100 μL of 1×PBST, pH 7.4 for low expressors for loading onto the sensor tips. The resulting diluted supernatants were then captured on an anti-human Fc sensor (Forte Bio). A baseline was established using 1×PBST (50 mM Potassium Phosphate Buffer+150 mM NaCl+0.05% Tween 20) pH 7.4, and the […] was associated with 50 nM of LRRC15 (Human LRRC15 Protein, His Tag, Acro Biosystems) in 1×PBST pH 7.4 for 120 sec to generate an association curve. In the dissociation phase, the antibody-antigen complex on the sensor was exposed to 1×PBST pH 7.4 or pH 5.4, for 300 sec. Association and dissociation phase curves were examined for the starting ABPC antibody (with no substitutions) and each corresponding antibody variant at pH 5.4 and pH 7.4 to inform on two criteria: a) enhanced dissociation (i.e., higher koff values) at pH 5.4 due to histidine substitution compared to the starting ABPC, (with no substitutions), and b) reduced dissociation at pH 7.4 (i.e., lower koff values) compared to pH 5.4 in the antibody variant itself and with the starting ABPC (with no substitutions).
The methods of Examples 9-10 were applied to RabMAb clone 29F1 (rabbit VH SEQ ID NO: 572 and VL SEQ ID NO: 578; and humanized VH SEQ ID NO: 576 and VL SEQ ID NO: 582).

binding result | Binder
binds | B12
binds | B13
binds | B14
binds | B15
binds | B16
binds | B17
binds | B18
binds | B19
binds | B20
binds | B21
binds | B22
binds | B23
binds | B24
binds | B25
binds | B26
binds | B27
